The source of these data is patent publication US20170129940A1 (INSTITUTE FOR RESEARCH IN BIOMEDICINE, published 2017).

Test in all cases: cell-based or functional assay
In test [1] the target is T1, hCMV gH (expressed in HEK293T cells) (human cytomegalovirus, UniProt P12824 24-743).
In test [2] the target is T1, hCMV gH (expressed in HEK293T cells). The source holds these as a separate data set.
The target in test [3] is T2, hCMV UL128 + UL130 + UL131A (co-expressed in HEK293T cells) (human cytomegalovirus, UniProt P16837 28-171; P16772 1-214; F5HET4 19-129).
T2 sequence (P16837 28-171 limits assumed, one chain of several): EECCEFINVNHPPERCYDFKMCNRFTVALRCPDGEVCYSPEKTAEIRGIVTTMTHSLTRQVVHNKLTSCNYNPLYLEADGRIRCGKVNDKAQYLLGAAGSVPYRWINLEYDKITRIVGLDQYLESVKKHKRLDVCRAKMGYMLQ
Test [4] concerns the target T2, hCMV UL128 + UL130 + UL131A …. The source holds these as a separate data set.
The target of test [5] is T3, hCMV UL130 + UL131A (co-expressed in HEK293T cells) (human cytomegalovirus, UniProt P16772 1-214; F5HET4 19-129).
In test [6] the target is T3, hCMV UL130 + UL131A (co-expressed in …). The source holds these as a separate data set.

B1: 11B12 (antibody, V domains shown)
VH: QMQLVQSGPQVKKPGTSVKVSCKASGFTFTSSAMQWVRQARGQRPEWIGWIVLGSGNTNYAQKFQERVTLTRDMSTATAYMELSSLRSEDTAVYYCAADRGRGGYNVYTYWGQGTLVAVSS
VL: EIVMTQSPGTLSLSPGERATLSCRASQTISNTYVAWYQQKPGQAPRLLIYGASSRATGIPDRFSGSGSGTDFTLTIRRLEPEDFAVYYCQQNGQSPWTFGQGTNVEIK
As for B1, in test [1], the “50% Neutralization ARPE” value is not above 2 µg/mL and the “50% Neutralization MRC-9” value is not above 2 µg/mL. Moreover, in test [2], the “90% Neutralization ARPE” value came out at 1.2 µg/mL and the “90% Neutralization MRC-9” value turned out to be 3.5 µg/mL.

B2: 8J16 (antibody, V domains shown)
VH: QVQLQESGPGLVKPSETLSLTCSVSGGFTSSYYWSWIRQAPGKGLEWIGYVYYGESTDYNPSLKSRATISIDTSKNQFSLKLSSVTAADTAVYYCAREVDKRGFDYWGQGALVTVSS
VL: EIVLTQSPGTLSLSPGERATLSCRASQSVSGGYLAWYQQEPGQAPRLVIYGASSRATGIPDRFSASGSGTDFTLTITRLEPEDFAVYYCQQYGRTPLTFGGGTKVEIK
With B2, in test [3], the “50% Neutralization ARPE” value was less than 0.001 µg/mL and the “50% Neutralization MRC-9” value is more than 2 µg/mL. Further, in test [4], the “90% Neutralization ARPE” value stood at 0.0008 µg/mL and the “90% Neutralization MRC-9” value is more than 10 µg/mL.

B3: 2C12 (antibody, V domains shown)
VH: QITLRESGPTLVKPTQTLTLTCTFSGFSLNTNGVGVGWIRQPPGKALEWLALIYWNGNEGYSPSLKSRLTITKDTSKNQVVLTMTNMDPVDTATYYCVHWPQGLTTVTRLAFDIWGQGTMVTVSS
VL: QSALTQPRSVSGSPGQSVTISCTGTTSDVGRYNFVSWYQQHPGKAPKLLMYDVSQRPSGVPSRFSGSKSGNTASLTISGLQAEDEAVFYCCSYAGGNFFSYVFGTGTKVTVL
Consider B3, for which, in test [3], the “50% Neutralization ARPE” value was less than 0.01 µg/mL and the “50% Neutralization MRC-9” value was not above 2 µg/mL. For the same molecule, in test [4], the “90% Neutralization ARPE” value was found to be 0.006 µg/mL and the “90% Neutralization MRC-9” value is more than 10 µg/mL.

B4: 10F7 (antibody, V domains shown)
VH: EVQLVESGGGLVQPGRSLRLSCTASGFTFGDYAMSWFRQAPGKGLEWVGFIRSKAYGGTTEYAASVKGRFTISRDDSKSIAYLQMNSLKTEDTAVYYCTRASSLLWLLNPQPNFDYWGQGTLVTVSS
VL: SYVLTQPPSVSVAPGQTARITCGGNNIGSNNVHWYQQKPGQAPVLVVYDDSDRPSGIPERFSGSNSGNTATLTISRVEAGDEADYYCQVWDSSSDHPVFGGGTKLTVL
As to B4, in test [5], the “50% Neutralization ARPE” value was less than 0.01 µg/mL and the “50% Neutralization MRC-9” value is not above 2 µg/mL. For the same molecule, in test [6], the “90% Neutralization ARPE” value was found to be 0.002 µg/mL and the “90% Neutralization MRC-9” value was more than 10 µg/mL.

B5: 13H11 (antibody, V domains shown)
VH: QVQLVQSGAEVKKPGASVKVSCKASGYTFTNYYIHWVRQAPGQGLEWMGIIHPSSGGTSYAQKFQGRVTMTRDTSTSTVSMDLSSLRSEDTAVYYCGRAFRILGLSDVFVNDWGQGTVVTVSS
VL: DIQMTQSPSSLSASVGDRVTITCRASQGINNYLAWYQQKPGKVPKLLIYAASTLQSGVPSRFSGSGSGTAFTLTILSLQPEDVATYYCQKYNSAPFTFGPGTKVDIK
Regarding B5, in test [1], the “50% Neutralization ARPE” value is less than 0.01 µg/mL and the “50% Neutralization MRC-9” value was not above 2 µg/mL. Also, in test [2], the “90% Neutralization ARPE” value was 0.4 µg/mL and the “90% Neutralization MRC-9” value was 1.12 µg/mL.

B6: 7I13 (antibody, V domains shown)
VH: QVQLVESGGGVVQPGRSLRLSCAASGFTFSNYGMHWVRQGPGKGLEWVAVISYDASSKYYTDSVQGRFTISRDNSKNTLFLQMNSLRGEDTAVYYCAKALRYLDWFLSDPFDYWGQGTLVTVSS
VL: EIVLTQSPGTLSLSPGERATLSCRASQSVSSDFLAWYQQKPGQAPRLLIYGASSRATGIPDRFSGSGSGTDFTLTISRLEPEDFAVYYCQQYAASPPFGQGTRLEIK
Consider B6, for which, in test [3], the “50% Neutralization ARPE” value was less than 0.01 µg/mL and the “50% Neutralization MRC-9” value was more than 2 µg/mL. Also, in test [4], the “90% Neutralization ARPE” value is 0.008 µg/mL and the “90% Neutralization MRC-9” value was more than 10 µg/mL.

B7: 4I22 (antibody, V domains shown)
VH: QVQLVESGGGVVQPGRSLRLSCVASGFTFSSYAMHWVRQAPGKGLEWVAVISYDGDNKFYADSVKGRFRISRDTSKNTLYLEMNSLRAADTAIYYCAREELVGLMPPYYNYGLDVWGQGTTVTVSS
VL: QSVLTQPPSVSAAPGQKVTISCSGSNSNIGNNYVSWYQQLPGRAPKLLIYDNDHRPSGIPDRFSGSKSGTSATLVITGLQTGDEADYYCETWDTSLSAAVVFGGGTKLTVL
With B7, in test [5], the “50% Neutralization ARPE” value is less than 0.01 µg/mL and the “50% Neutralization MRC-9” value was more than 2 µg/mL. In test [6], the “90% Neutralization ARPE” value came out at 0.0015 µg/mL and the “90% Neutralization MRC-9” value is more than 10 µg/mL.

B8: 8C15 (antibody, V domains shown)
VH: QVQLQESGPGLVKPSETLSLTCTVSGGSIRSYYWSWIRQPPGKGLEWIGHIYYSGNTNYSPSLQSRVTISLDTPKNQFSLRLSSVTAADTAVYYCARHDVIVVRGVFDVWGQGTVVTVSS
VL: QSALTQPASVSGSPGQSITISCTGTSSDIGTYNLVSWYQQHPGKAPKVLIYDGSKRPSGVSSRFSASKSGNTASLTISGLQAEDETDYYCCSYAGTSDFFVVFGGGTKLTVL
As for B8, in test [3], the “50% Neutralization ARPE” value is less than 0.001 µg/mL and the “50% Neutralization MRC-9” value is more than 2 µg/mL. Moreover, in test [4], the “90% Neutralization ARPE” value is 0.0025 µg/mL and the “90% Neutralization MRC-9” value is more than 10 µg/mL.

B9: 7B13 (antibody, V domains shown)
VH: QVQLVESGGGVVQPGGSLRLSCAASGFSFSNYGMHWVRQAPGKGLEWVALIPSDGNYQYYTDSVKGRFTVSRDNSRNTLYLQMKSLRAEDTARYHCAHLGGGLFDFWGQGTLVTVSS
VL: QSALNQPRSVSGSPGQSVSISCTGSSSDVGGYEFVSWYQHHPGKAPKLIIYDVDKRPSGVPDRFSGSRSGDTASLTISGLQAEDEADYYCYSSADTWVFGGGTKLTVL
As for B9, in test [3], the “50% Neutralization ARPE” value was less than 0.001 µg/mL and the “50% Neutralization MRC-9” value was more than 2 µg/mL. For the same molecule, in test [4], the “90% Neutralization ARPE” value amounted to 0.003 µg/mL and the “90% Neutralization MRC-9” value was more than 10 µg/mL.

B10: 10P3 (antibody, V domains shown)
VH: EVQLVESGGGLVRPGGSLRLSCAASGFTFHNYRMNWVRQAPGKGLEWVANIKQDGSEKSYVDSVRGRFTTSRDNSKNSLYLQINSLRAEDTAVYYCARGEGYTYGVVYSYSAMDVWGQGTTVIVSS
VL: SYELTQPPSVSVSPGQTARITCSGNVLPNQYASWYQQKPGQAPVLVIYKDTERPSGIPGRFSGSSSGTTVTLTISGVQAEDEADYYCQSADSSGADYVFGTGTKVTVL
B10: in test [5], the “50% Neutralization ARPE” value is less than 0.001 µg/mL and the “50% Neutralization MRC-9” value is more than 2 µg/mL. Further, in test [6], the “90% Neutralization ARPE” value is 0.0025 µg/mL and the “90% Neutralization MRC-9” value was more than 10 µg/mL.

B11: 4N10 (antibody, V domains shown)
VH: QVQLVQSGAEVKKPGSSVRVSCKASGGTFSSYVIIWVRQAPGQGLEWMGGVIPIFDTVNYAQKFQGRVTITADESTSTAYMELSSLKSEDTAVYYCARGILAYCGGDCYNTPYGMDVWGQGTTVTVSS
VL: DIQMTQSPSILSASVGDRVTITCRASQSISSWLAWYQQKPGKAPKLLIYKASSLEIGVPSRISGSGSGTEFTLTISSLQPDDFATYYCQQYNSSWTFGQGTKVEIK
As for B11, in test [5], the “50% Neutralization ARPE” value is less than 0.001 µg/mL and the “50% Neutralization MRC-9” value is not above 2 µg/mL. In test [6], the “90% Neutralization ARPE” value was found to be 0.02 µg/mL and the “90% Neutralization MRC-9” value is more than 10 µg/mL.

B12: 8L13 (antibody, V domains shown)
VH: QVQLLESGGGVVQPGRSLRLSCAASGFTFSNYGMHWVRQAPGKGLEWVAVIWNDGSKKYYAESVKGRFTISRDNSKNTVYLQMNSLRAEDTAVYYCARDEGVQMVFAMPDYGMDVWGQGTTVTVSS
VL: SYELTQPPSVSVSPGQTASITCSGDKLGDKFACWYQQRPGQSPILVIYQDSKRPSGIPERFSGSNSGNTATLTIRGTQAMDEADYYCQAWDSSTAHYVFGTGTKVTVL
As for B12, in test [5], the “50% Neutralization ARPE” value is less than 0.01 µg/mL and the “50% Neutralization MRC-9” value was more than 2 µg/mL. Moreover, in test [6], the “90% Neutralization ARPE” value came out at 0.001 µg/mL and the “90% Neutralization MRC-9” value is more than 10 µg/mL.

B13: 9I6 (antibody, V domains shown)
VH: EVQLVQSGAEVKKPGESLKISCRESGDTFPAYWIAWVRQMPGKGLEWMGIIYPIDSETTYSPSFQGQVTISADKSINTAYLQWSSLKASDSAIYYCARGTSTGLREAFHIWGQGTMVTVSS
VL: DVVMTQSPLSLAVTLGQPAYISCRSSQSLGYSDGNTYLNWFQQRPGQSPRRLIYEVSNRDSGVPDRFSGSGSGTDFTLKISRVEAEDVGTYYCMQGTHWPPMCSFGQGTKLEIK
B13: in test [3], the “50% Neutralization ARPE” value is less than 0.001 µg/mL and the “50% Neutralization MRC-9” value was more than 2 µg/mL. In addition, in test [4], the “90% Neutralization ARPE” value turned out to be 0.0007 µg/mL and the “90% Neutralization MRC-9” value was more than 10 µg/mL.

B14: 3G16 (antibody, V domains shown)
VH: QSALTQPASVSGSPGESITISCTGTISDVGAYNSVSWYQQHSGTAPELIIYDVTNRPAGVSSRFSGSKSGNTASLTISWLQSEDEAEYYCSSYTTSDTYVFGSGTQVTVL
V domain: RAQLVQSAAEMKNPGASVKVSCEASGYTFTGYYVHWMRQAPGQGLEWMGWINPMTGATKSPQKFQGRVTMTRDTSTTATHIELTRLRSDDSAVFFCARGGPTSTRITGKRHFDLWGRGTLITVAS
B14: in test [1], the “50% Neutralization ARPE” value is not above 2 µg/mL and the “50% Neutralization MRC-9” value was not above 2 µg/mL. In test [2], the “90% Neutralization ARPE” value worked out at 0.3 µg/mL and the “90% Neutralization MRC-9” value is 1 µg/mL.
